B1: Compound 8 (peptide)
peptide: cyclo([dL]REPWMP)
SMILES: CSCC[C@@H]1NC(=O)[C@H](Cc2c[nH]c3ccccc23)NC(=O)[C@@H]2CCCN2C(=O)[C@H](CCC(=O)O)NC(=O)[C@H](CCCNC(=N)N)NC(=O)[C@@H](CC(C)C)NC(=O)[C@@H]2CCCN2C1=O
B2: Compound 11 (peptide)
peptide: cyclo(VP[dL][dW][dV]LRP)
SMILES: CC(C)C[C@@H]1NC(=O)[C@@H](C(C)C)NC(=O)[C@@H](Cc2c[nH]c3ccccc23)NC(=O)[C@@H](CC(C)C)NC(=O)[C@@H]2CCCN2C(=O)[C@H](C(C)C)NC(=O)[C@@H]2CCCN2C(=O)[C@H](CCCNC(=N)N)NC1=O
B3: Compound 4 (peptide)
peptide: cyclo(RE[dV]W[dP][dP])
SMILES: CC(C)[C@H]1NC(=O)[C@H](CCC(=O)O)NC(=O)[C@H](CCCNC(=N)N)NC(=O)[C@H]2CCCN2C(=O)[C@H]2CCCN2C(=O)[C@H](Cc2c[nH]c3ccccc23)NC1=O
B4: Compound 2 (peptide)
peptide: cyclo(RT[dV]E[dF][dP])
SMILES: CC(C)[C@H]1NC(=O)[C@H]([C@@H](C)O)NC(=O)[C@H](CCCNC(=N)N)NC(=O)[C@H]2CCCN2C(=O)[C@@H](Cc2ccccc2)NC(=O)[C@H](CCC(=O)O)NC1=O
B5: Compound 1 (peptide)
peptide: cyclo([dR][dF][dV]YEP)
SMILES: CC(C)[C@H]1NC(=O)[C@@H](Cc2ccccc2)NC(=O)[C@@H](CCCNC(=N)N)NC(=O)[C@@H]2CCCN2C(=O)[C@H](CCC(=O)O)NC(=O)[C@H](Cc2ccc(O)cc2)NC1=O
B6: Compound 10 (peptide)
peptide: cyclo(RDYC[dP][dW][dP])
SMILES: N=C(N)NCCC[C@@H]1NC(=O)[C@H]2CCCN2C(=O)[C@@H](Cc2c[nH]c3ccccc23)NC(=O)[C@H]2CCCN2C(=O)[C@H](CS)NC(=O)[C@H](Cc2ccc(O)cc2)NC(=O)[C@H](CC(=O)O)NC1=O
B7: Compound 6 (peptide)
peptide: cyclo(YRE[dT][dV][dP])
SMILES: CC(C)[C@H]1NC(=O)[C@@H]([C@H](C)O)NC(=O)[C@H](CCC(=O)O)NC(=O)[C@H](CCCNC(=N)N)NC(=O)[C@H](Cc2ccc(O)cc2)NC(=O)[C@H]2CCCN2C1=O
B8: Compound 3 (peptide)
peptide: cyclo(E[dT][dV]W[dP][dP])
SMILES: CC(C)[C@H]1NC(=O)[C@@H]([C@H](C)O)NC(=O)[C@H](CCC(=O)O)NC(=O)[C@H]2CCCN2C(=O)[C@H]2CCCN2C(=O)[C@H](Cc2c[nH]c3ccccc23)NC1=O
B9: Compound 9 (peptide)
peptide: cyclo([dR]L[dW]W[dT]EP)
SMILES: CC(C)C[C@@H]1NC(=O)[C@@H](CCCNC(=N)N)NC(=O)[C@@H]2CCCN2C(=O)[C@H](CCC(=O)O)NC(=O)[C@@H]([C@H](C)O)NC(=O)[C@H](Cc2c[nH]c3ccccc23)NC(=O)[C@@H](Cc2c[nH]c3ccccc23)NC1=O
B10: Compound 7 (peptide)
peptide: cyclo(TR[dF]P[dL][dP])
SMILES: CC(C)C[C@H]1NC(=O)[C@@H]2CCCN2C(=O)[C@@H](Cc2ccccc2)NC(=O)[C@H](CCCNC(=N)N)NC(=O)[C@H]([C@@H](C)O)NC(=O)[C@H]2CCCN2C1=O
B11: Compound 5 (peptide)
peptide: cyclo(WVRE[dP][dP])
SMILES: CC(C)[C@@H]1NC(=O)[C@H](Cc2c[nH]c3ccccc23)NC(=O)[C@H]2CCCN2C(=O)[C@H]2CCCN2C(=O)[C@H](CCC(=O)O)NC(=O)[C@H](CCCNC(=N)N)NC1=O
B12: Tralokinumab (antibody, V domains shown)
VH: QVQLVQSGAEVKKPGASVKVSCKASGYTFTNYGLSWVRQAPGQGLEWMGWISANNGDTNYGQEFQGRVTMTTDTSTSTAYMELRSLRSDDTAVYYCARDSSSSWARWFFDLWGRGTLVTVSS
VL: SYVLTQPPSVSVAPGKTARITCGGNIIGSKLVHWYQQKPGQAPVLVIYDDGDRPSGIPERFSGSNSGNTATLTISRVEAGDEADYYCQVWDTGSDPVVFGGGTKLTVL

Square brackets hold non-standard residues; d marks the D form.

T1 sequence (P35225 35-146 limits assumed): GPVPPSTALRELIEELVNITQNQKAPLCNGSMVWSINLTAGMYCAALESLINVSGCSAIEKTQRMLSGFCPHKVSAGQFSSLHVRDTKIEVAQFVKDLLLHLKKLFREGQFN

The first assay has as its target T1, Human IL-13 with an Fc-tag (human, UniProt P35225 35-146, limits assumed).
T1 construct: Immobilized on CM5 chip (about 5000 RU); also called Interleukin-13; not shown: Fc-tag
Briefly: SPR, BIAcore 8K plus, human IL-13-Fc immobilized on CM5, peptide as analyte, 25 C. (In SPR one partner is held on a chip, and binding of the other changes the refractive index at the surface.)
B1: the Kd amounted to 99.5 µM.

Turning to B2, the Kd was determined as 622 µM.

With B3, the Kd was found to be 26.2 µM.

For B4, the equilibrium dissociation constant (Kd) was 17.4 µM.

With B5, the Kd is 16 µM.

Consider B6, for which the Kd was determined as 368 µM.

Consider B7, for which the Kd stood at 55.4 µM.

Take B8: the Kd was 22.8 µM.

For the molecule B9, the Kd is 337 µM.

B10: the Kd stood at 85.1 µM.

Consider B11, for which the Kd amounted to 47.1 µM.

A further assay deals with T1, Human IL-13 with an Fc-tag. The assay can be described thus: SPR, BIAcore 8K plus, human IL-13-Fc immobilized on CM5, positive control.
For the molecule B12, the Kd is 0.000309 µM.

The term Kd denotes the constant that tells how readily two partners part at equilibrium.

(Values after patent US20230399362A1 (B A I LABORATORIES, published 2023).)
